The source of these data is patent US20170226211A1.

In general, EC50 (read off the curve) refers to the concentration that produces a half-maximal response. High values mean a need for much substance, low ones an effect from little substance.

This assay concerns the target Cynomolgus/Rhesus CTLA-4 (cynomolgus/rhesus). As to the kind of experiment: ELISA, antibody coated, Cynomolgus/Rhesus CTLA-4 titrated. On the technique in general: ELISA stands for enzyme-linked immunosorbent assay.

The substance Ipilimumab (antibody) displayed an EC50 (read off the curve) of 0.2 nM.
